According to PMC4325844 (Molecular Biology of the Cell, 2015):

Molecular target: GST–PAR3-2N (UniProt Q9Z340 252-697)
Experiment: pull-down

GST–PAR3-2N, sequence (Q9Z340 252-697): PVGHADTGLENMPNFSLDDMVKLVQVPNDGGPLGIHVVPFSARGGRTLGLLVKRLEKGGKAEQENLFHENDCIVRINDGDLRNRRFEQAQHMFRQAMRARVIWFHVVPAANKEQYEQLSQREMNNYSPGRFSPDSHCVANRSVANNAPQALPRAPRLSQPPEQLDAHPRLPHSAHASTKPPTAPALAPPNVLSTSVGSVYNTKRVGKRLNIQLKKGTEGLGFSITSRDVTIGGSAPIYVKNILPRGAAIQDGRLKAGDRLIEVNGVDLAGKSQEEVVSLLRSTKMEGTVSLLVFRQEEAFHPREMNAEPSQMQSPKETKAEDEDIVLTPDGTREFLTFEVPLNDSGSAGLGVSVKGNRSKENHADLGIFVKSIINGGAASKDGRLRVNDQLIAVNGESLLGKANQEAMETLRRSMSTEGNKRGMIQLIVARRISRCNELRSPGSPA

B1: MBP–CLASP2-N2 (domain or fragment, UniProt O75122 310-670, looked up)
chain: SSGSVASLPQSDRSSSSSQESLNRPFSSKWSTANPSTVAGRVSAGSSKASSLPGSLQRSRSDIDVNAAAGAKAHHAAGQSVRSGRLGAGALNAGSYASLEDTSDKLDGTASEDGRVRAKLSAPLAGMGNAKADSRGRSRTKMVSQSQPGSRSGSPGRVLTTTALSTVSSGVQRVLVNSASAQKRSKIPRSQGCSREASPSRLSVARSSRIPRPSVSQGCSREASRESSRDTSPVRSFQPLASRHHSRSTGALYAPEVYGASGPGYGISQSSRLSSSVSAMRVLNTGSDVEEAVADALKKPARRRYESYGMHSDDDANSDASSACSERSYSSRNGSIPTYMRQTEDVAEVLNRCASSNWSER
A Kd of roughly 6 nM was found for B1 in this work.
